Experimental data from patent US20230220042A1 (SHANGHAI JIAO TONG UNIVERSITY SCHOOL OF MEDICINE, published 2023).

T1: FcγRIIA^131H (human, UniProt P12318 34-217, biotin-labeled)
T1 construct: extracellular domain; Bought protein; also called RIIAH
T1 sequence (looked up): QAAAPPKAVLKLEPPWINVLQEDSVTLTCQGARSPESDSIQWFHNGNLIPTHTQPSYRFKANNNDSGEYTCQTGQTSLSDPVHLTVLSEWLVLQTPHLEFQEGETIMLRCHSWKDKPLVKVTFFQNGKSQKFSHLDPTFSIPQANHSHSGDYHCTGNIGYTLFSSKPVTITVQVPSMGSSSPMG

T2: FcγRIIA^131R (human, UniProt P12318 34-217, biotin-labeled)
T2 construct: extracellular domain; Bought protein; also called RIIAR
T2 sequence (looked up): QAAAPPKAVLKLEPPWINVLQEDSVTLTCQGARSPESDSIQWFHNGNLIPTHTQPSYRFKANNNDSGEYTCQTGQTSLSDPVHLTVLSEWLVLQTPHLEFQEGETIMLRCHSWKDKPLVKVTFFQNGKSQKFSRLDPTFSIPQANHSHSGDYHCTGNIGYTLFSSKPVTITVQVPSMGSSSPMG

T3: FcγRIIB (human, UniProt P31994 43-217, biotin-labeled)
T3 construct: extracellular domain; Bought protein; also called CD32b
T3 sequence (looked up): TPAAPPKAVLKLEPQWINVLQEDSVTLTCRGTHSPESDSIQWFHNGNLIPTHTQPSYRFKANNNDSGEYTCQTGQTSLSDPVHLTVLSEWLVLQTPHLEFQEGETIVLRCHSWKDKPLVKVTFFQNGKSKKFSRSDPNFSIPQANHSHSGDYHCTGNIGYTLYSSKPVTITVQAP


Columns and labels:
FcγRI = target: T4, FcγRI (human, UniProt P12314 16-292, biotin-labeled); assay: ELISA, coated antibody, biotin-FcγR;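 on Absorbance value: antibody coated at 2 µg/mL at 100 µL per well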
T4 construct: extracellular domain; Bought protein; also called CD64
Procedure: (§1) One hundred μl (2 μg/mL) of antibody or mutant thereof were added to the enzyme-linked plate to be coated overnight, then the supernatant was discarded. The plate was blocked with PBS containing 1% BSA for 2 hours, and washed with PBST (PBS containing 0.05% Tween 20). Biotin-labeled FcγR extracellular domain protein (Beijing Sino Biological Co., Ltd) of appropriate concentration was added and incubated at room temperature for 1 hour, then the supernatant was discarded and the plate was washed with PBST. The Biotin-labeled protein was detected by incubating with Streptavidin-HRP (BD BioSciences) at room temperature for 1 hour. The supernatant was removed, and the color-developing solution was added for color development for 20-40 minutes to determine the absorbance of 650 nm (A650).
(§2) Anti-human OX40 antibodies containing these new Fc mutation combinations are expressed and the binding property of the mutant antibody to FcγR are analyzed by Enzyme-linked immunosorbent assay (ELISA).

FcγRIIA^131H = target: T1, FcγRIIA^131H; assay: ELISA, coated antibody, biotin-FcγR;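 on Absorbance value: antibody coated at 2 µg/mL at 100 µL per well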
Procedure: as §1, §2

FcγRIIA^131R = target: T2, FcγRIIA^131R; assay: ELISA, coated antibody, biotin-FcγR;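 on Absorbance value: antibody coated at 2 µg/mL at 100 µL per well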
Procedure: as §1, §2

FcγRIIB [1] = target: T3, FcγRIIB; assay: ELISA, coated antibody, biotin-FcγR;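 on Absorbance value: antibody coated at 2 µg/mL at 100 µL per well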
Procedure: as §1, §2

FcγRIIIA^158F = target: T5, FcγRIIIA^158F (human, UniProt P08637 17-208, biotin-labeled); assay: ELISA, coated antibody, biotin-FcγR;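 on Absorbance value: antibody coated at 2 µg/mL at 100 µL per well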
T5 construct: extracellular domain; Bought protein; also called RIIIAF
Procedure: as §1, §2

FcγRIIIA^158V = target: T6, FcγRIIIA^158V (human, UniProt P08637 17-208, biotin-labeled); assay: ELISA, coated antibody, biotin-FcγR;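 on Absorbance value: antibody coated at 2 µg/mL at 100 µL per well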
T6 construct: extracellular domain; Bought protein; also called RIIIAV; CD16a 158V
Procedure: as §1, §2

FcγRIIB [2] = target: T3, FcγRIIB; assay: ELISA; relative affinity to FcγRIIB over that to FcγRIIA131R
Procedure: as §1, §2

T4 sequence (P12314 16-292): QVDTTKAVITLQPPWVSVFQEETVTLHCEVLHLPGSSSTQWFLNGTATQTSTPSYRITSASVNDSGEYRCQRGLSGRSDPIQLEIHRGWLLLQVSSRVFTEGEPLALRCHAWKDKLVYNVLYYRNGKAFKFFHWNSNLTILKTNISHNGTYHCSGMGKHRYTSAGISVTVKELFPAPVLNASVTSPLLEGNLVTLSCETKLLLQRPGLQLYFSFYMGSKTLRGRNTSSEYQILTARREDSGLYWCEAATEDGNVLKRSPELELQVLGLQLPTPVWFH
T5 sequence (P08637 17-208): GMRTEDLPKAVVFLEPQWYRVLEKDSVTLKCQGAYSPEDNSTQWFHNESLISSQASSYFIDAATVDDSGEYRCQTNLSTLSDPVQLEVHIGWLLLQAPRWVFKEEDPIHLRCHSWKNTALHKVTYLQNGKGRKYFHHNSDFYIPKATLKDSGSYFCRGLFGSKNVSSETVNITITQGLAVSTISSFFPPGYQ
T6 sequence (P08637 17-208 F176V): as the sequence (P08637 17-208) above, with F160V counted along it

Absorbance value (FcγRI)	Relative binding affinity RI/G1 (FcγRI)	Absorbance value (FcγRIIA^131H)	Relative binding affinity RIIAH/G1 (FcγRIIA^131H)	Absorbance value (FcγRIIA^131R)	Relative binding affinity RIIAR/G1 (FcγRIIA^131R)	Absorbance value (FcγRIIB [1])	Increased factor of RIIB binding compared with wild-type IgG2 (FcγRIIB [1])	Relative binding affinity RIIB/G1 (FcγRIIB [1])	Absorbance value (FcγRIIIA^158F)	Relative binding affinity RIIIAF/G1 (FcγRIIIA^158F)	Absorbance value (FcγRIIIA^158V)	Relative binding affinity RIIIAV/G1 (FcγRIIIA^158V)	RIIB/RIIAR (FcγRIIB [2])	Binder
0.38 A650	0.14 ratio	0.46 A650	0.81 ratio	0.46 A650	1.77 ratio	1.18 A650	15.7 fold	1.56 ratio	0.06 A650	0.31 ratio	0.06 A650	0.07 ratio	0.88 ratio	anti-human OX40 IgG2 antibody Mut_5 (A235W/V266L/S298L/L328W) (antibody, Substitutions in Eu numbering; entries include an unstated signal peptide) heavy: QVQLQESGPGLVKPSGTLSLTCAVSGGSISSSIWWSWVRQPPGKGLEWIGEIHHSGNTNCNPSLKSRVTISIDKSKNQFSLKLTSVTAADTAVYYCARAGTGTTLDYWGQGTLVTVSSASTKGPSVFPLAPCSRSTSESTAALGCLVKDYFPEPVTVSWNSGALTSGVHTFPAVLQSSGLYSLSSVVTVPSSNFGTQTYTCNVDHKPSNTKVDKTVERKCCVECPPCPAPPVWGPSVFLFPPKPKDTLMISRTPEVTCVVVDLSHEDPEVQFNWYVDGVEVHNAKTKPREEQFNLTFRVVSVLTVVHQDWLNGKEYKCKVSNKGWPAPIEKTISKTKGQPREPQVYTLPPSREEMTKNQVSLTCLVKGFYPSDIAVEWESNGQPENNYKTTPPMLDSDGSFFLYSKLTVDKSRWQQGNVFSCSVMHEALHNHYTQKSLSLSPGK light: EIVLTQSPGTLSLSPGERATLSCRASQSVSGDYLAWYQQKLGQAPRLLIYGASIRATGIPDRFSGSGSGTDFTLTISKLEPEDFAVYYCQQYGSSPLTFGGGTKVEIKRTVAAPSVFIFPPSDEQLKSGTASVVCLLNNFYPREAKVQWKVDNALQSGNSQESVTEQDSKDSTYSLSSTLTLSKADYEKHKVYACEVTHQGLSSPVTKSFNRGEC
0.12 A650	0.05 ratio	0.2 A650	0.34 ratio	0.74 A650	2.83 ratio	1.2 A650	16 fold	1.59 ratio	0.07 A650	0.38 ratio	0.07 A650	0.08 ratio	0.56 ratio	anti-human OX40 IgG2 antibody Mut_9 (V266L/S267D/H268D/E269D/P271Q) (antibody, name in EU numbering, Substitutions in Eu numbering; entries include an unstated signal peptide) heavy: QVQLQESGPGLVKPSGTLSLTCAVSGGSISSSIWWSWVRQPPGKGLEWIGEIHHSGNTNCNPSLKSRVTISIDKSKNQFSLKLTSVTAADTAVYYCARAGTGTTLDYWGQGTLVTVSSASTKGPSVFPLAPCSRSTSESTAALGCLVKDYFPEPVTVSWNSGALTSGVHTFPAVLQSSGLYSLSSVVTVPSSNFGTQTYTCNVDHKPSNTKVDKTVERKCCVECPPCPAPPVAGPSVFLFPPKPKDTLMISRTPEVTCVVVDLDDDDQEVQFNWYVDGVEVHNAKTKPREEQFNSTFRVVSVLTVVHQDWLNGKEYKCKVSNKGLPAPIEKTISKTKGQPREPQVYTLPPSREEMTKNQVSLTCLVKGFYPSDIAVEWESNGQPENNYKTTPPMLDSDGSFFLYSKLTVDKSRWQQGNVFSCSVMHEALHNHYTQKSLSLSPGK light: EIVLTQSPGTLSLSPGERATLSCRASQSVSGDYLAWYQQKLGQAPRLLIYGASIRATGIPDRFSGSGSGTDFTLTISKLEPEDFAVYYCQQYGSSPLTFGGGTKVEIKRTVAAPSVFIFPPSDEQLKSGTASVVCLLNNFYPREAKVQWKVDNALQSGNSQESVTEQDSKDSTYSLSSTLTLSKADYEKHKVYACEVTHQGLSSPVTKSFNRGEC
0.09 A650	0.03 ratio	0.05 A650	0.08 ratio	0.05 A650	0.19 ratio	0.5 A650	6.63 fold	0.66 ratio	0.06 A650	0.3 ratio	0.06 A650	0.06 ratio	3.52 ratio	anti-human OX40 IgG2 antibody Mut_6 (V234Q/A235G/P238L/S239V/H268D/G327A/L328E/A330S/I332T) (antibody, entries include an unstated signal peptide) heavy: QVQLQESGPGLVKPSGTLSLTCAVSGGSISSSIWWSWVRQPPGKGLEWIGEIHHSGNTNCNPSLKSRVTISIDKSKNQFSLKLTSVTAADTAVYYCARAGTGTTLDYWGQGTLVTVSSASTKGPSVFPLAPCSRSTSESTAALGCLVKDYFPEPVTVSWNSGALTSGVHTFPAVLQSSGLYSLSSVVTVPSSNFGTQTYTCNVDHKPSNTKVDKTVERKCCVECPPCPAPPQGGLVVFLFPPKPKDTLMISRTPEVTCVVVDVSDEDPEVQFNWYVDGVEVHNAKTKPREEQFNSTFRVVSVLTVVHQDWLNGKEYKCKVSNKAEPSPTEKTISKTKGQPREPQVYTLPPSREEMTKNQVSLTCLVKGFYPSDIAVEWESNGQPENNYKTTPPMLDSDGSFFLYSKLTVDKSRWQQGNVFSCSVMHEALHNHYTQKSLSLSPGK light: EIVLTQSPGTLSLSPGERATLSCRASQSVSGDYLAWYQQKLGQAPRLLIYGASIRATGIPDRFSGSGSGTDFTLTISKLEPEDFAVYYCQQYGSSPLTFGGGTKVEIKRTVAAPSVFIFPPSDEQLKSGTASVVCLLNNFYPREAKVQWKVDNALQSGNSQESVTEQDSKDSTYSLSSTLTLSKADYEKHKVYACEVTHQGLSSPVTKSFNRGEC
0.13 A650	0.05 ratio	0.38 A650	0.67 ratio	0.23 A650	0.87 ratio	0.58 A650	7.7 fold	0.76 ratio	0.07 A650	0.38 ratio	0.06 A650	0.07 ratio	0.88 ratio	anti-human OX40 IgG2 antibody Mut_7 (S239V/V266L/S298L/L328W) (antibody, name in EU numbering, Substitutions in Eu numbering; entries include an unstated signal peptide) heavy: QVQLQESGPGLVKPSGTLSLTCAVSGGSISSSIWWSWVRQPPGKGLEWIGEIHHSGNTNCNPSLKSRVTISIDKSKNQFSLKLTSVTAADTAVYYCARAGTGTTLDYWGQGTLVTVSSASTKGPSVFPLAPCSRSTSESTAALGCLVKDYFPEPVTVSWNSGALTSGVHTFPAVLQSSGLYSLSSVVTVPSSNFGTQTYTCNVDHKPSNTKVDKTVERKCCVECPPCPAPPVAGPVVFLFPPKPKDTLMISRTPEVTCVVVDLSHEDPEVQFNWYVDGVEVHNAKTKPREEQFNLTFRVVSVLTVVHQDWLNGKEYKCKVSNKGWPAPIEKTISKTKGQPREPQVYTLPPSREEMTKNQVSLTCLVKGFYPSDIAVEWESNGQPENNYKTTPPMLDSDGSFFLYSKLTVDKSRWQQGNVFSCSVMHEALHNHYTQKSLSLSPGK light: EIVLTQSPGTLSLSPGERATLSCRASQSVSGDYLAWYQQKLGQAPRLLIYGASIRATGIPDRFSGSGSGTDFTLTISKLEPEDFAVYYCQQYGSSPLTFGGGTKVEIKRTVAAPSVFIFPPSDEQLKSGTASVVCLLNNFYPREAKVQWKVDNALQSGNSQESVTEQDSKDSTYSLSSTLTLSKADYEKHKVYACEVTHQGLSSPVTKSFNRGEC
